From patent US11931404B2, “Use of ultrarapid acting insulin” (MannKind Corporation, priority 2014, dated 2024)

Details: human, in vivo
Protocol: The insulin-FDKP formulation is administered to the subjects by oral inhalation using a MEDTONE® dry powder inhaler (MannKind Corp.). Following the completion of the meal challenge, the data was analyzed as per the statistical analysis plan. […] The study was amended (A1) and included 12 subjects (10 were reenrolled from the first meal challenge), and only two treatments, which were 10 U lispro and 60 and 90 U TI. The doses were selected based on the relative bioavailability observed following the first meal challenge (OP), where under an assumption of linear kinetics, 10 U lispro and 60 U TI would result in similar exposure. The 90 U dose group was included to assess the effect of the highest dose group of TI studied in Phase 3 trials. Six of the 12 subjects received 60 U TI and the other 6 subjects received 90 U TI. All 12 subjects received 10 U lispro in a crossover fashion. Methods and results below are described in terms of the Original Protocol (OP), which includes the meal challenge in 18 subjects with three treatments (EXUBERA®, lispro and TI) and Amendment 1 (A1), which includes 12 subjects treated with only TI and lispro. […] The subjects were screened and evaluated before, during and after the experiments and their data analyzed as described below. […]

insulin lispro
median tmax of insulin concentrations: 1.25 h
